Experimental data from publication PMC11700839.

Target: ETS1 transcription factor (endogenous, FP-RMS cells) (human (endogenous in Rh30 and Rh41)) (UniProt P14921)
Experiment: co-IP; endogenous proteins from Rh30 and Rh41 cells, IP with ETS1 antibody (rabbit IgG as negative control), immunoblot; also with Ethidium Bromide or Benzonase in the IP; also cells pre-treated 16 hours with 1 µM YK-4-279 or DMSO and the same included in the IP reaction, recovery by densitometry normalized to ETS1

Chain of UniProt P14921 (P14921 whole entry): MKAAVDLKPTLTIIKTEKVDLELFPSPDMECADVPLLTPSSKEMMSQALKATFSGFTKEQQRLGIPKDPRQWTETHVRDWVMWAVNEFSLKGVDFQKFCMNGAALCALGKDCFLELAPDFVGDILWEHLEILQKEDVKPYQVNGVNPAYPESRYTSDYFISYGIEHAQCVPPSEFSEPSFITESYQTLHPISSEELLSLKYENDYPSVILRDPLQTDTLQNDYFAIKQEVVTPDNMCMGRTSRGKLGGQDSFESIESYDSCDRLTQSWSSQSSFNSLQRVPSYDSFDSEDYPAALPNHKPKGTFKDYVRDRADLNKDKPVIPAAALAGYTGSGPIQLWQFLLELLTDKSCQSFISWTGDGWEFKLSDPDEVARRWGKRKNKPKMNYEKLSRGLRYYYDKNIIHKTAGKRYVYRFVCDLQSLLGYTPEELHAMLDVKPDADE

co-immunoprecipitated PAX3-FOXO1 with 1 µM YK-4-279, percent of DMSO control (Rh30 cells) (% of DMSO control): 50
co-immunoprecipitated PAX3-FOXO1 with 1 µM YK-4-279, percent of DMSO control (Rh41 cells) (% of DMSO control): 65
Substance: PAX3-FOXO1 oncofusion (endogenous, FP-RMS cells) (natural protein)
